± gives the uncertainty stated by the source.
Test: self-splicing fitness, log relative to wild type (ln ratio); higher = more splicing; Tetrahymena group I intron in knt gene, E. coli kanamycin selection, DiMSum; sequences stand for … in CUCUCU…GGAGGGAAAAGUUAUCAGGCAUGCACCUGGUAGCUAGUCUUUAAACCAAUAGAUUGCAUCGGUUUAAAAGGCAAGACCGUCAAAUUGCGGGAAAGGGGUCAACAGCCGUUCAGUACCAAGUCUCAGGGGAAACUUUGAGAUGGCCUUGCAAAGGGUAUGGUAAUAAGCUGACGGACAUGGUCCUAACCACGCAGCCAAGUCCUAAGUCAACAGAUCUUCUGUUGAUAUGGAUGCAGUUCACAGACUAAAUGUCGGUCGGGGAAGAUGUAUUCUUCUCAUAAGAUAUAGUCGGACCUCUCCUUAAUGGGAGCUAGCGGAUGAAGUGAUGCAACACUGGAGCCGCUGGGAACUAAUUUGUAUGCGAAAGUAUAUUGAUUAGUUUUGGAGUACUCGUGGUCG
Summary of the method: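 Colonies from six replicate transformations of E. coli BL21(DE3) were pooled and amplicon-sequenced on an Illumina HiSeq 2500. The library placed an intron with all eight P1ex-region nucleotides randomised inside the knt kanamycin-resistance gene on pET-22b(+), and cells grew overnight at 37°C or 30°C on LB agar with or without 25 μg/mL kanamycin (plus 100 μg/mL carbenicillin, 50 μM IPTG, 0.2% rhamnose). Fitness is the DiMSum error-weighted combination of wild-type-normalised replicate fold changes, kanamycin versus none.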

| Sequence | self-splicing fitness (ln) (30 °C) | self-splicing fitness (ln) (37 °C) |
| --- | --- | --- |
| CGUUAGCAAUAUUACGGGGG | -4.81 ± 0.45 | -3.46 ± 0.29 |
| CGUUAGCAAUAUUACGGGUA | -3.15 ± 0.37 | -2.08 ± 0.2 |
| CGUUAGCAAUAUUACGUAAU | -2.88 ± 0.24 | -1.63 ± 0.25 |
| CGUUAGCAAUAUUACGUAUC |  | -2.15 ± 0.28 |
| CGUUAGCAAUAUUACGUCUC |  | -1.86 ± 0.35 |
| CGUUAGCAAUAUUACGUGCC | -2.8 ± 0.31 | -1.59 ± 0.29 |
| CGUUAGCAAUAUUACGUUCC |  | -1.47 ± 0.45 |
| CUAAAGCAAUAUUACGAAGU | -4.21 ± 0.26 | -2.57 ± 0.28 |
| CUAAAGCAAUAUUACGACAA | -2.42 ± 0.15 | -1.2 ± 0.19 |
| CUAAAGCAAUAUUACGACGC |  | -1.39 ± 0.45 |
| CUAAAGCAAUAUUACGAGCA | -3.41 ± 0.25 | -1.08 ± 0.2 |
| CUAAAGCAAUAUUACGAGUU | -2.84 ± 0.32 | -1.85 ± 0.26 |
| CUAAAGCAAUAUUACGCGAA | -3.71 ± 0.25 | -2.63 ± 0.36 |
| CUAAAGCAAUAUUACGCGCU | -3.15 ± 0.16 | -2.06 ± 0.23 |
| CUAAAGCAAUAUUACGCGGC | -1.21 ± 0.13 | -1.28 ± 0.17 |
| CUAAAGCAAUAUUACGCUCA | -3.67 ± 0.25 | -2.39 ± 0.19 |
| CUAAAGCAAUAUUACGGAAA | -4.24 ± 0.37 | -2.44 ± 0.35 |
| CUAAAGCAAUAUUACGGACU | -3.93 ± 0.25 | -1.9 ± 0.27 |
| CUAAAGCAAUAUUACGGAGC | -3.27 ± 0.31 | -1.2 ± 0.29 |
| CUAAAGCAAUAUUACGGAUC | -2.3 ± 0.21 |  |
| CUAAAGCAAUAUUACGGCUU | -3.8 ± 0.21 | -2.44 ± 0.29 |
| CUAAAGCAAUAUUACGGGAG | -0.542 ± 0.056 | 0.188 ± 0.077 |
| CUAAAGCAAUAUUACGGUUC | -4.09 ± 0.2 | -2.68 ± 0.18 |
| CUAAAGCAAUAUUACGUAGU | -4.53 ± 0.2 | -2.59 ± 0.17 |
| CUAAAGCAAUAUUACGUGUU | -4.79 ± 0.19 | -2.91 ± 0.16 |

| Sequence | self-splicing fitness (ln) (30 °C) | self-splicing fitness (ln) (37 °C) |
| --- | --- | --- |
| CUAAAGCAAUAUUACGUUAG | -2.33 ± 0.093 | -1.77 ± 0.1 |
| CUAAAGCAAUAUUACGUUAU | -4.11 ± 0.21 | -3.34 ± 0.26 |
| CUAAAGCAAUAUUACGUUUG | -1.47 ± 0.075 | -0.672 ± 0.092 |
| CUACAGCAAUAUUACGAAAC | -3.35 ± 0.26 | -2.37 ± 0.39 |
| CUACAGCAAUAUUACGAACG | 0.241 ± 0.11 | 0.6 ± 0.14 |
| CUACAGCAAUAUUACGACAU | -3.878 ± 0.021 | -2.67 ± 0.037 |
| CUACAGCAAUAUUACGACCA | -2.7 ± 0.3 | -2.31 ± 0.35 |
| CUACAGCAAUAUUACGAUUC | -4.31 ± 0.43 | -1.6 ± 0.24 |
| CUACAGCAAUAUUACGCCCU | -3.11 ± 0.2 | -2.85 ± 0.29 |
| CUACAGCAAUAUUACGCCUC | -3.9 ± 0.3 | -0.901 ± 0.34 |
| CUACAGCAAUAUUACGCGGA | -3.06 ± 0.25 | -3 ± 0.27 |
| CUACAGCAAUAUUACGCUCU | -4.15 ± 0.25 | -2.74 ± 0.29 |
| CUACAGCAAUAUUACGGAAG | -1.46 ± 0.085 | -0.751 ± 0.11 |
| CUACAGCAAUAUUACGGAGA | -4.39 ± 0.42 | -2.27 ± 0.27 |
| CUACAGCAAUAUUACGGGAC | -2.98 ± 0.14 | -2.06 ± 0.15 |
| CUACAGCAAUAUUACGGGCA | -2.76 ± 0.18 | -2.21 ± 0.21 |
| CUACAGCAAUAUUACGUAAU | -3.8 ± 0.19 | -2.84 ± 0.18 |
| CUACAGCAAUAUUACGUACU | -3.15 ± 0.14 | -1.05 ± 0.15 |
| CUACAGCAAUAUUACGUGAC | -1.02 ± 0.09 | -0.853 ± 0.14 |
| CUACAGCAAUAUUACGUGCG | -1.75 ± 0.081 | -0.715 ± 0.089 |
| CUAGAGCAAUAUUACGACAA | -2.53 ± 0.32 | -1.84 ± 0.34 |
| CUAGAGCAAUAUUACGAUGC | -2.31 ± 0.42 | -1.94 ± 0.43 |
| CUAGAGCAAUAUUACGCAAG | -1.8 ± 0.096 | -0.42 ± 0.11 |
| CUAGAGCAAUAUUACGCACG | -0.957 ± 0.15 | -0.23 ± 0.24 |
